Reference: the Immune Epitope Database (IEDB)
pKd: −log10 of the molar value. Values belong to the sequence of their own block, whether it stands above or below them.

What was measured:
HLA-A*03:01 = test: IEDB peptide-MHC binding, purified MHC/competitive/fluorescence; filed as Kd, often an IC50 or EC50 that approximates it; ≥ and ≤ were set here for values at or beyond the usual limits of such assays
HLA-B*53:01 = test: IEDB peptide-MHC binding, purified MHC/competitive/radioactivity; filed as Kd, often an IC50 or EC50 that approximates it; ≥ and ≤ were set here for values at or beyond the usual limits of such assays
HLA-B*07:02 = test: as above
HLA-B*51:01 = test: as above
HLA-B*54:01 = test: as above
HLA-B*35:01 = test: as above
HLA-A*02:01 = test: as above
HLA-A*02:17 = test: as above
HLA-A*02:06 = test: as above
HLA-A*68:02 = test: as above
HLA-A*02:03 = test: as above
HLA-B*15:01 = test: IEDB peptide-MHC binding, purified MHC/direct/fluorescence; filed as Kd, often an IC50 or EC50 that approximates it; ≥ and ≤ were set here for values at or beyond the usual limits of such assays; conditions: source organism: Lassa virus Josiah
HLA-B*46:01 = test: as above; conditions: source organism: Lassa virus Josiah
[1] = source organism: SARS coronavirus Tor2
[2] = source organism: Mammarenavirus guanaritoense
[3] = source organism: Mammarenavirus lassaense
[4] = source organism: Dengue virus 3 Sri Lanka/1266/2000
[5] = source organism: Vaccinia virus WR
[6] = source organism: Dengue virus 4 Philippines/H241/1956
[7] = source organism: Dengue virus 2 Jamaica/1409/1983
[8] = source organism: Dengue virus 3 Martinique/1243/1999
[9] = source organism: Dengue virus 3 China/80-2/1980
[10] = source organism: Dengue virus 1 Brazil/97-11/1997
[11] = source organism: Dengue virus 1 Singapore/S275/1990

Sequence: LLANILSEH
pKd (HLA-A*03:01; source organism: Vibrio cholerae 2740-80): 6.28

Sequence: APNAKEEIL
pKd (HLA-B*53:01; [1]): 4.73
pKd (HLA-B*07:02; [1]): 7.15
pKd (HLA-B*51:01; [1]): 5.58
pKd (HLA-B*54:01; [1]): ≤ 4.63
pKd (HLA-B*35:01; [1]): 4.72

Sequence: NPLVITTSV
pKd (HLA-B*53:01; [2]): 4.85
pKd (HLA-B*07:02; [2]): 5.88
pKd (HLA-B*51:01; [2]): 6.42
pKd (HLA-B*54:01; [2]): 7.10
pKd (HLA-B*35:01; [2]): 5.26

Sequence: SPLFLIVAAL
pKd (HLA-B*53:01; [1]): 5.98
pKd (HLA-B*07:02; [1]): 6.61
pKd (HLA-B*51:01; [1]): 6.01
pKd (HLA-B*54:01; [1]): 6.02
pKd (HLA-B*35:01; [1]): 5.48

Sequence: CPFLFLIVL
pKd (HLA-B*53:01; [3]): 4.85
pKd (HLA-B*07:02; [3]): ≤ 4.11
pKd (HLA-B*51:01; [3]): ≤ 4.26
pKd (HLA-B*54:01; [3]): 5.82
pKd (HLA-B*35:01; [3]): 6.38

Sequence: HMIAGVFFT
pKd (HLA-A*02:01; [4]): 8.05
pKd (HLA-A*02:17; [4]): 5.85

Sequence: DPRLVAEHRF
pKd (HLA-B*53:01; [5]): 5.92
pKd (HLA-B*07:02; [5]): ≤ 4.67
pKd (HLA-B*51:01; [5]): ≤ 4.16
pKd (HLA-B*54:01; [5]): ≤ 4.16
pKd (HLA-B*35:01; [5]): 4.93

Sequence: KLTDWDFVV
pKd (HLA-A*02:06; [6]): 8.63
pKd (HLA-A*02:01; source organism: dengue virus type 4): 7.21
pKd (HLA-A*02:17; [6]): 6.13

Sequence: TAAAWYLWEV
pKd (HLA-A*68:02; [7]): 8.39
pKd (HLA-A*02:06; [7]): 8.89
pKd (HLA-A*02:01; [7]): 7.99
pKd (HLA-A*02:17; [7]): 5.99

Sequence: VMAVGLVSI
pKd (HLA-A*02:03; [8]): 8.95
pKd (HLA-A*02:17; [9]): 5.49

Sequence: ILLKATLLAV
pKd (HLA-A*02:06; [10]): 7.74
pKd (HLA-A*02:01; [11]): 8.65
pKd (HLA-A*02:03; [10]): 8.66
pKd (HLA-A*02:17; [11]): 6.50

pKd (HLA-A*03:01; source organism: Escherichia coli O139:H28 str. E24377A): 7.25
Sequence: ALALFDLLK

Sequence: MIAGVFFTFV
pKd (HLA-A*68:02; [8]): 8.55
pKd (HLA-A*02:06; [8]): 8.99
pKd (HLA-A*02:01; [4]): 7.90
pKd (HLA-A*02:03; [8]): ≥ 10.00
pKd (HLA-A*02:17; [4]): 7.08

Sequence: TPVEIVVDM
pKd (HLA-B*53:01; [3]): 6.80
pKd (HLA-B*07:02; [3]): 4.78
pKd (HLA-B*51:01; [3]): 5.01
pKd (HLA-B*54:01; [3]): ≤ 4.11
pKd (HLA-B*35:01; [3]): 8.34

Sequence: LLLLGLMILL
pKd (HLA-A*02:06; [8]): 7.67
pKd (HLA-A*02:01; [9]): 7.93
pKd (HLA-A*02:17; [9]): 7.02

Sequence: DPDHYKDYAF
pKd (HLA-B*53:01; [5]): 5.46
pKd (HLA-B*07:02; [5]): ≤ 4.16
pKd (HLA-B*51:01; [5]): ≤ 4.16
pKd (HLA-B*54:01; [5]): 4.76
pKd (HLA-B*35:01; [5]): 6.05

Sequence: GLVECNNHY
pKd (HLA-B*15:01): 6.74
pKd (HLA-B*46:01): ≤ 4.70

Sequence: DPTFQLLNMI
pKd (HLA-B*53:01; [5]): 4.90
pKd (HLA-B*07:02; [5]): ≤ 4.16
pKd (HLA-B*51:01; [5]): 5.30
pKd (HLA-B*54:01; [5]): ≤ 4.57
pKd (HLA-B*35:01; [5]): ≤ 4.16

Sequence: ILIGFLVLWI
pKd (HLA-A*02:01; [6]): 7.01
pKd (HLA-A*02:17; [6]): 5.52

Sequence: FPYVMGDVEL
pKd (HLA-B*53:01; [3]): 7.33
pKd (HLA-B*07:02; [3]): 6.03
pKd (HLA-B*51:01; [3]): 6.52
pKd (HLA-B*54:01; [3]): 6.31
pKd (HLA-B*35:01; [3]): 7.95
